Test results reported in patent publication US20150344570A1 (published 2015).

B1: GpH7-B3 variant E333_13S/GpL16-k0 (antibody, human IgG1, kappa)
heavy: not shown
light: DIVMTQSPLSLPVTPGEPASISCQASESLVHSNRNTYLHWYLQKPGQSPQLLIYKVSNRFSGVPDRFSGSGSGTDFTLKISRVEAEDVGVYYCSQNTHVPPTFGQGTKVEIERTVAAPSVFIFPPSDEQLKSGTASVVCLLNNFYPREAKVQWKVDNALQSGNSQESVTEQDSKDSTYSLSSTLTLSKADYEKHKVYACEVTHQGLSSPVTKSFNRGEC
notes: also called Ho Ab E333_13S
B2: GpH7-B3 variant E333_14T/GpL16-k0 (antibody, human IgG1, kappa)
heavy: not shown
light: B1 light
notes: also called Ho Ab E333_14T
B3: GpH7-B3 variant G236_04F/GpL16-k0 (antibody, human IgG1, kappa)
heavy: not shown
light: B1 light
notes: also called Ho Ab G236_04F
B4: GpH7-B3 variant G236_14T/GpL16-k0 (antibody, human IgG1, kappa)
heavy: not shown
light: B1 light
notes: also called Ho Ab G236_14T
B5: GpH7-B3 variant G236_15Y/GpL16-k0 (antibody, human IgG1, kappa)
heavy: not shown
light: B1 light
notes: also called Ho Ab G236_15Y
B6: GpH7-B3 variant I336_03V/GpL16-k0 (antibody, human IgG1, kappa)
heavy: not shown
light: B1 light
notes: also called Ho Ab I336_03V
B7: GpH7-B3 variant I336_10E/GpL16-k0 (antibody, human IgG1, kappa)
heavy: not shown
light: B1 light
notes: also called Ho Ab I336_10E
B8: GpH7-B3 variant I336_18N/GpL16-k0 (antibody, human IgG1, kappa)
heavy: not shown
light: B1 light
notes: also called Ho Ab I336_18N
B9: GpH7-B3 variant K326_01G/GpL16-k0 (antibody, human IgG1, kappa)
heavy: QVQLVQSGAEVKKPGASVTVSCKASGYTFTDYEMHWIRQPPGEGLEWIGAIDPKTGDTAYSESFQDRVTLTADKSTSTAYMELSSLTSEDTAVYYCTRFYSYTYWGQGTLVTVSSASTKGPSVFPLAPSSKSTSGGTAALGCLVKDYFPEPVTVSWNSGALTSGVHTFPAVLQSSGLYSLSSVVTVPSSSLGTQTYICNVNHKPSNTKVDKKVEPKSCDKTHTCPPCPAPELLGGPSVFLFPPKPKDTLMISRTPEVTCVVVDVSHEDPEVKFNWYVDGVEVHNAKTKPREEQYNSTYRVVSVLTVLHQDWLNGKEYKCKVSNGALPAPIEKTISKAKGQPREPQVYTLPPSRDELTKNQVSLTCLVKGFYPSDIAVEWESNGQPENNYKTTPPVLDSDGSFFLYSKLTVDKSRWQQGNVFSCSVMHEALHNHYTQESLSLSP
light: B1 light
notes: also called Ho Ab K326_01G
B10: GpH7-B3 variant K326_07I/GpL16-k0 (antibody, human IgG1, kappa)
heavy: not shown
light: B1 light
notes: also called Ho Ab K326_07I
B11: GpH7-B3 variant K326_12R/GpL16-k0 (antibody, human IgG1, kappa)
heavy: not shown
light: B1 light
notes: also called Ho Ab K326_12R
B12: GpH7-B3 variant K334_13S/GpL16-k0 (antibody, human IgG1, kappa)
heavy: not shown
light: B1 light
notes: also called Ho Ab K334_13S
B13: GpH7-B3 variant K334_19Q/GpL16-k0 (antibody, human IgG1, kappa)
heavy: not shown
light: B1 light
notes: also called Ho Ab K334_19Q
B14: GpH7-B3 variant L234_04F/GpL16-k0 (antibody, human IgG1, kappa)
heavy: not shown
light: B1 light
notes: also called Ho Ab L234_04F
B15: GpH7-B3 variant L234_15Y/GpL16-k0 (antibody, human IgG1, kappa)
heavy: not shown
light: B1 light
notes: also called Ho Ab L234_15Y
B16: GpH7-B3 variant L234_20W/GpL16-k0 (antibody, human IgG1, kappa)
heavy: not shown
light: B1 light
notes: also called Ho Ab L234_20W
B17: GpH7-B3 variant S239_08L/GpL16-k0 (antibody, human IgG1, kappa)
heavy: not shown
light: B1 light
notes: also called Ho Ab S239_08L
B18: GpH7-B3 variant S239_10E/GpL16-k0 (antibody, human IgG1, kappa)
heavy: not shown
light: B1 light
notes: also called Ho Ab S239_10E
B19: GpH7-B3 variant S267_09D/GpL16-k0 (antibody, human IgG1, kappa)
heavy: not shown
light: B1 light
notes: also called Ho Ab S267_09D
B20: GpH7-B3 variant S267_10E/GpL16-k0 (antibody, human IgG1, kappa)
heavy: not shown
light: B1 light
notes: also called Ho Ab S267_10E
B21: GpH7-B3 variant S337_07I/GpL16-k0 (antibody, human IgG1, kappa)
heavy: not shown
light: B1 light
notes: also called Ho Ab S337_07I
B22: GpH7-B3 variant S337_08L/GpL16-k0 (antibody, human IgG1, kappa)
heavy: not shown
light: B1 light
notes: also called Ho Ab S337_08L
B23: GpH7-B3 variant S337_20W/GpL16-k0 (antibody, human IgG1, kappa)
heavy: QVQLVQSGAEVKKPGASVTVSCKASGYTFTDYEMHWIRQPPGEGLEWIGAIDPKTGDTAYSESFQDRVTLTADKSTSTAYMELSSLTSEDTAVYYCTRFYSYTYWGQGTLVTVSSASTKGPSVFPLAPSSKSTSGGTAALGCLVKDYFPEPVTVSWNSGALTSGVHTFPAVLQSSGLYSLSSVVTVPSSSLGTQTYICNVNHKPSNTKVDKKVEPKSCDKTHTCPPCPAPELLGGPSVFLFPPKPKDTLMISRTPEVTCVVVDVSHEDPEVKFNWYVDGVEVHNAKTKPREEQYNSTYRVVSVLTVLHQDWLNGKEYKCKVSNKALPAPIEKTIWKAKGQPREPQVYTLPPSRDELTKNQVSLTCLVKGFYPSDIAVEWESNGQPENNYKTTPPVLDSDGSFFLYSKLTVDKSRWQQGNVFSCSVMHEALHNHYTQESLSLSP
light: B1 light
notes: also called Ho Ab S337_20W
B24: GpH7-B3 variant T335_18N/GpL16-k0 (antibody, human IgG1, kappa)
heavy: not shown
light: B1 light
notes: also called Ho Ab T335_18N
B25: GpH7-B3 variant T335_20W/GpL16-k0 (antibody, human IgG1, kappa)
heavy: not shown
light: B1 light
notes: also called Ho Ab T335_20W
B26: GpH7-B3 variant V266_08L/GpL16-k0 (antibody, human IgG1, kappa)
heavy: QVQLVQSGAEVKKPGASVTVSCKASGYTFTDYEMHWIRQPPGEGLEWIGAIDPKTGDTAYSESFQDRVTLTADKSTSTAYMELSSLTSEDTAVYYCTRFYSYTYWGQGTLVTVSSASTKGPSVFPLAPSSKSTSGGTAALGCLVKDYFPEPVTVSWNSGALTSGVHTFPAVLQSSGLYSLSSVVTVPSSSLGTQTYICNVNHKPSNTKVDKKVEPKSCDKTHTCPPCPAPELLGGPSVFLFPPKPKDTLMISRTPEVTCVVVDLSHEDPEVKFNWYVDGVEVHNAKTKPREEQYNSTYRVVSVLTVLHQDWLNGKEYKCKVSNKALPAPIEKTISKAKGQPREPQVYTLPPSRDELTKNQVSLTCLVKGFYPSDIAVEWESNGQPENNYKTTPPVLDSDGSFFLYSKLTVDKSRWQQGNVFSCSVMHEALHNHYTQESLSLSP
light: B1 light
notes: also called Ho Ab V266_08L
B27: GpH7-B3 variant Y296_04F/GpL16-k0 (antibody, human IgG1, kappa)
heavy: not shown
light: B1 light
notes: also called Ho Ab Y296_04F
B28: GpH7-B3 variant Y296_09D/GpL16-k0 (antibody, human IgG1, kappa)
heavy: not shown
light: B1 light
notes: also called Ho Ab Y296_09D
B29: GpH7-B3 variant Y296_16H/GpL16-k0 (antibody, human IgG1, kappa)
heavy: not shown
light: B1 light
notes: also called Ho Ab Y296_16H
B30: GpH7-B3 variant A330_16H/GpL16-k0 (antibody, human IgG1, kappa)
heavy: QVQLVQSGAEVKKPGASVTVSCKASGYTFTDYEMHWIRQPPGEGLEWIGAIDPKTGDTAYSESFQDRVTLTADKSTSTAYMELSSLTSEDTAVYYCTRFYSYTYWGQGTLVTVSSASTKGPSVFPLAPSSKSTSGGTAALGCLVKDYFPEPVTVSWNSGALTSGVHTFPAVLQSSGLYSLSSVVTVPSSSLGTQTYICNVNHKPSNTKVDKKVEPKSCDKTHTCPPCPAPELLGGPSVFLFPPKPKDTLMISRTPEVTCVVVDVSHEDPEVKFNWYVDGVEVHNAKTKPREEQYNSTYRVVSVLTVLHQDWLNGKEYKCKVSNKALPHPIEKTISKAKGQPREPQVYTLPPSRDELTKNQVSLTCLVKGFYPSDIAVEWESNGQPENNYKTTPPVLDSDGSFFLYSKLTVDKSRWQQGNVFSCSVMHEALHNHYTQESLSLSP
light: B1 light
notes: also called Ho Ab A330_16H
B31: GpH7-B3 variant E333_09D/GpL16-k0 (antibody, human IgG1, kappa)
heavy: not shown
light: B1 light
notes: also called Ho Ab E333_09D
B32: GpH7-B3 variant G236_03V/GpL16-k0 (antibody, human IgG1, kappa)
heavy: not shown
light: B1 light
notes: also called Ho Ab G236_03V
B33: GpH7-B3 variant G236_07I/GpL16-k0 (antibody, human IgG1, kappa)
heavy: not shown
light: B1 light
notes: also called Ho Ab G236_07I
B34: GpH7-B3 variant H268_02A/GpL16-k0 (antibody, human IgG1, kappa)
heavy: not shown
light: B1 light
notes: also called Ho Ab H268_02A
B35: GpH7-B3 variant H268_18N/GpL16-k0 (antibody, human IgG1, kappa)
heavy: not shown
light: B1 light
notes: also called Ho Ab H268_18N
B36: GpH7-B3 variant H268_19Q/GpL16-k0 (antibody, human IgG1, kappa)
heavy: not shown
light: B1 light
notes: also called Ho Ab H268_19Q
B37: GpH7-B3 variant I336_06M/GpL16-k0 (antibody, human IgG1, kappa)
heavy: not shown
light: B1 light
notes: also called Ho Ab I336_06M
B38: GpH7-B3 variant I336_08L/GpL16-k0 (antibody, human IgG1, kappa)
heavy: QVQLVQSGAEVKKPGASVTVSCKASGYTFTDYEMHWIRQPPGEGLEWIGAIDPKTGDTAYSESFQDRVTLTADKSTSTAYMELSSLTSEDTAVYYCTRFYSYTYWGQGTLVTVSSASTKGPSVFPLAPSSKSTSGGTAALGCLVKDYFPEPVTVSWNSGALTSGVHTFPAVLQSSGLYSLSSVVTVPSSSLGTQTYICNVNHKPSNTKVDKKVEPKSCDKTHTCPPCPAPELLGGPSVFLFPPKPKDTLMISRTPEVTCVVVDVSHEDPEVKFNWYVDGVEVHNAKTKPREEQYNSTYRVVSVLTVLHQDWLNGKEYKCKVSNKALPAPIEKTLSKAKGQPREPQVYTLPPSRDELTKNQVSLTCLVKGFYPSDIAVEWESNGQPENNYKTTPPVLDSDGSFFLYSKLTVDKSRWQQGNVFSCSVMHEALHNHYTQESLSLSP
light: B1 light
notes: also called Ho Ab I336_08L
B39: GpH7-B3 variant K326_06M/GpL16-k0 (antibody, human IgG1, kappa)
heavy: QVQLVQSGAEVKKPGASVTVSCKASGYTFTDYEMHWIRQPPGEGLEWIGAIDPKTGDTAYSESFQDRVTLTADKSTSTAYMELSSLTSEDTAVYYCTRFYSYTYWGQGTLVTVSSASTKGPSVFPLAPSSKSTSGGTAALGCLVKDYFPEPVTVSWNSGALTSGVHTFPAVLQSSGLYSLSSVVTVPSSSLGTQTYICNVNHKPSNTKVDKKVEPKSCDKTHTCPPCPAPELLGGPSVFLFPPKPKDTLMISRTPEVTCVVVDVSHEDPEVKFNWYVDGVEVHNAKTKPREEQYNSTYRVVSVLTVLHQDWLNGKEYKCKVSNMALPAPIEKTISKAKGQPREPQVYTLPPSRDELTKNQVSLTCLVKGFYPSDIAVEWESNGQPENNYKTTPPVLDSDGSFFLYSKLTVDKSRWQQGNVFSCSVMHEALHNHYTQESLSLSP
light: B1 light
notes: also called Ho Ab K326_06M
B40: GpH7-B3 variant K326_10E/GpL16-k0 (antibody, human IgG1, kappa)
heavy: not shown
light: B1 light
notes: also called Ho Ab K326_10E
B41: GpH7-B3 variant K326_19Q/GpL16-k0 (antibody, human IgG1, kappa)
heavy: not shown
light: B1 light
notes: also called Ho Ab K326_19Q
B42: GpH7-B3 variant K334_04F/GpL16-k0 (antibody, human IgG1, kappa)
heavy: not shown
light: B1 light
notes: also called Ho Ab K334_04F
B43: GpH7-B3 variant K334_08L/GpL16-k0 (antibody, human IgG1, kappa)
heavy: not shown
light: B1 light
notes: also called Ho Ab K334_08L
B44: GpH7-B3 variant K334_16H/GpL16-k0 (antibody, human IgG1, kappa)
heavy: not shown
light: B1 light
notes: also called Ho Ab K334_16H
B45: GpH7-B3 variant L235_04F/GpL16-k0 (antibody, human IgG1, kappa)
heavy: not shown
light: B1 light
notes: also called Ho Ab L235_04F
B46: GpH7-B3 variant L235_15Y/GpL16-k0 (antibody, human IgG1, kappa)
heavy: not shown
light: B1 light
notes: also called Ho Ab L235_15Y
B47: GpH7-B3 variant L235_20W/GpL16-k0 (antibody, human IgG1, kappa)
heavy: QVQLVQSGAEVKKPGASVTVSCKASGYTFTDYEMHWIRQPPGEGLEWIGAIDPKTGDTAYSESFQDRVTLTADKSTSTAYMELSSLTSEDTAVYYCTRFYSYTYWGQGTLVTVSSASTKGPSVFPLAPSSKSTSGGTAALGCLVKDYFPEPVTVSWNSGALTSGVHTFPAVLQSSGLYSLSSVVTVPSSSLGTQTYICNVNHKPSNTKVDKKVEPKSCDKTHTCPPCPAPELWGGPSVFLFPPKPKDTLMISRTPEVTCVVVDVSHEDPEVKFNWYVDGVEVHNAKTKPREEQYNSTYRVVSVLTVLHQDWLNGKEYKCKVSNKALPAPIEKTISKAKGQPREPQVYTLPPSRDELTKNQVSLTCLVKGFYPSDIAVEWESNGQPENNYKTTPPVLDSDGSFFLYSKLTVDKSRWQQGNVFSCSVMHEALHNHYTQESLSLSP
light: B1 light
notes: also called Ho Ab L235_20W
B48: GpH7-B3 variant L328_06M/GpL16-k0 (antibody, human IgG1, kappa)
heavy: not shown
light: B1 light
notes: also called Ho Ab L328_06M
B49: GpH7-B3 variant L328_14T/GpL16-k0 (antibody, human IgG1, kappa)
heavy: not shown
light: B1 light
notes: also called Ho Ab L328_14T
B50: GpH7-B3 variant L328_20W/GpL16-k0 (antibody, human IgG1, kappa)
heavy: not shown
light: B1 light
notes: also called Ho Ab L328_20W
B51: GpH7-B3 variant S239_09D/GpL16-k0 (antibody, human IgG1, kappa)
heavy: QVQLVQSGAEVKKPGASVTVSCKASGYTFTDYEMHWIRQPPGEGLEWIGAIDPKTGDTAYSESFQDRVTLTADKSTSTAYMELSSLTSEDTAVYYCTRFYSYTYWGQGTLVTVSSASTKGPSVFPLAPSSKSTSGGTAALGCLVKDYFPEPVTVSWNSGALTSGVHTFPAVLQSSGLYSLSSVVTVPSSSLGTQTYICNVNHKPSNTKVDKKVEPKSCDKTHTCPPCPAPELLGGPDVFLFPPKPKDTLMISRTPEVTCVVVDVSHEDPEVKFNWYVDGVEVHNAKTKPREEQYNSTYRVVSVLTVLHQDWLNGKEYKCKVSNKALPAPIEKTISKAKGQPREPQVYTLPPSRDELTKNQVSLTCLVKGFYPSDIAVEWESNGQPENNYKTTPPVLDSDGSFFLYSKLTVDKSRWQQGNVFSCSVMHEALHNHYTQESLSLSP
light: B1 light
notes: also called Ho Ab S239_09D
B52: GpH7-B3 variant S267_02A/GpL16-k0 (antibody, human IgG1, kappa)
heavy: not shown
light: B1 light
notes: also called Ho Ab S267_02A
B53: GpH7-B3 variant S324_02A/GpL16-k0 (antibody, human IgG1, kappa)
heavy: not shown
light: B1 light
notes: also called Ho Ab S324_02A
B54: GpH7-B3 variant S337_09D/GpL16-k0 (antibody, human IgG1, kappa)
heavy: not shown
light: B1 light
notes: also called Ho Ab S337_09D
B55: GpH7-B3 variant S337_10E/GpL16-k0 (antibody, human IgG1, kappa)
heavy: not shown
light: B1 light
notes: also called Ho Ab S337_10E
B56: GpH7-B3 variant T335_01G/GpL16-k0 (antibody, human IgG1, kappa)
heavy: not shown
light: B1 light
notes: also called Ho Ab T335_01G
B57: GpH7-B3 variant T335_07I/GpL16-k0 (antibody, human IgG1, kappa)
heavy: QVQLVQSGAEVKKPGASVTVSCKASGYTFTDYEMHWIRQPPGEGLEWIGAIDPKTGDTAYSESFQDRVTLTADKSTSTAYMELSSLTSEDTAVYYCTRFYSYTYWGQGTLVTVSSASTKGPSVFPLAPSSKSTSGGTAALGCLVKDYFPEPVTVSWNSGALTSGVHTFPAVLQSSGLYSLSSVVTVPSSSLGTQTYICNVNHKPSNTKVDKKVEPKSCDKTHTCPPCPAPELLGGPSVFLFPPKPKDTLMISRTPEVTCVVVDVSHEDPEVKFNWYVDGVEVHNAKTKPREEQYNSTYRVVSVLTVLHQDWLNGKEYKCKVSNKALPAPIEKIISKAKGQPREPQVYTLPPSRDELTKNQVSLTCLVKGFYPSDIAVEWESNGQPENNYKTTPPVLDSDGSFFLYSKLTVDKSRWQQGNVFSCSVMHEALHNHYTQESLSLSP
light: B1 light
notes: also called Ho Ab T335_07I
B58: GpH7-B3 variant T335_10E/GpL16-k0 (antibody, human IgG1, kappa)
heavy: not shown
light: B1 light
notes: also called Ho Ab T335_10E
B59: GpH7-B3 variant T335_13S/GpL16-k0 (antibody, human IgG1, kappa)
heavy: not shown
light: B1 light
notes: also called Ho Ab T335_13S
B60: GpH7-B3 variant T335_15Y/GpL16-k0 (antibody, human IgG1, kappa)
heavy: not shown
light: B1 light
notes: also called Ho Ab T335_15Y
B61: GpH7-B3 variant T335_16H/GpL16-k0 (antibody, human IgG1, kappa)
heavy: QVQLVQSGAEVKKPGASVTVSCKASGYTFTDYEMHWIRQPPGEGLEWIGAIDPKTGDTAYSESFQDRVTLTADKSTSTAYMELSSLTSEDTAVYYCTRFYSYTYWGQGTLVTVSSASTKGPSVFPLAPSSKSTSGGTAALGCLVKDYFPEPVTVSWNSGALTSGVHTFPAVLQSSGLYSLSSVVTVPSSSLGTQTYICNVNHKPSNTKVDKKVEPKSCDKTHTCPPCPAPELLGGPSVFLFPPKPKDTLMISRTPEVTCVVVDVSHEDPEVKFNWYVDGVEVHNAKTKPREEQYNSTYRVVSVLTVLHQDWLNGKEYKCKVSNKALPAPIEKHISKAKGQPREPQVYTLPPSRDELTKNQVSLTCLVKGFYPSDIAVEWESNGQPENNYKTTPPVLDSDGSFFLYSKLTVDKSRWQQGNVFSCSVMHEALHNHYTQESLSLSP
light: B1 light
notes: also called Ho Ab T335_16H

target: FcγRIIa H (human, UniProt P12318 34-217); test: SPR Biacore, captured antibody, FcγR analyte; vs GpH7-B3/GpL16-k0 = 100
Sequence (P12318 34-217): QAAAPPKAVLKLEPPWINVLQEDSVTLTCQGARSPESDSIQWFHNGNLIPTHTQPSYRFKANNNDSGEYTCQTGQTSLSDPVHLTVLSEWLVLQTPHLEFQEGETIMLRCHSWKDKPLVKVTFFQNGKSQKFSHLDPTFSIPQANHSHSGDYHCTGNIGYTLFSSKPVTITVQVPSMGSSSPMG

Point of comparison: B56, Ho/Con_2aH 101 % of control. Against it:
- B1 — lower, 94.6 % of control
- B2 — lower, 90.4 % of control
- B3 — lower, 63.2 % of control
- B4 — lower, 94.2 % of control
- B5 — lower, 80.4 % of control
- B6 — lower, 90.4 % of control
- B7 — lower, 93.4 % of control
- B8 — lower, 94.3 % of control
- B9 — lower, 98.2 % of control
- B10 — lower, 78.1 % of control
- B11 — lower, 98.8 % of control
- B12 — lower, 94.9 % of control
- B13 — lower, 97.2 % of control
- B14 — lower, 54.2 % of control
- B15 — lower, 43.8 % of control
- B16 — lower, 55.3 % of control
- B17 — lower, 87 % of control
- B18 — lower, 91.4 % of control
- B19 — lower, 91.5 % of control
- B20 — lower, 98.5 % of control
- B21 — lower, 94 % of control
- B22 — lower, 93.1 % of control
- B23 — lower, 96.6 % of control
- B24 — lower, 98 % of control
- B25 — lower, 98.7 % of control
- B26 — lower, 91.5 % of control
- B27 — lower, 95 % of control
- B28 — lower, 99.9 % of control
- B29 — lower, 85.7 % of control
- B30 — the same, 101 % of control
- B31 — higher, 103 % of control
- B32 — higher, 111 % of control
- B33 — the same, 101 % of control
- B34 — higher, 111 % of control
- B35 — higher, 110 % of control
- B36 — higher, 102 % of control
- B37 — lower, 100 % of control
- B38 — the same, 101 % of control
- B39 — the same, 101 % of control
- B40 — the same, 101 % of control
- B41 — lower, 100 % of control
- B42 — higher, 103 % of control
- B43 — higher, 103 % of control
- B44 — the same, 101 % of control
- B45 — the same, 101 % of control
- B46 — higher, 107 % of control
- B47 — higher, 112 % of control
- B48 — lower, 100 % of control
- B49 — higher, 110 % of control
- B50 — higher, 112 % of control
- B51 — higher, 112 % of control
- B52 — higher, 120 % of control
- B53 — higher, 102 % of control
- B54 — higher, 107 % of control
- B55 — the same, 101 % of control
- B57 — higher, 105 % of control
- B58 — higher, 105 % of control
- B59 — the same, 101 % of control
- B60 — higher, 102 % of control
- B61 — lower, 100 % of control
